Experiment: soluble on expression in E. coli; label from the status in PepcDB or PDB records

Row | Sequence | soluble on expression in E. coli
1 | MALVDQESCLRGFYSVFLRHCDVEPAIATFDGVRSPPDVVRLYPKPRYDYTLASAFLGTAVSGYITSRRDNAPNKNTGHRYVYTTSILIAVVTSVDTQHRSPSRCFMAMGESYFLQDEKCVFWLEHHHHHH | not soluble
2 | MKNDSFLDKVIGSLLSQNFQVDSNAYTYGLVKGKNDSFSGKVIDGIDVAKSILAIAQIFGSPIDSDCADFKTIFNGEGFKKDLKALYSMTDAVLYKFILGQPLIVGVVKADSLTHNEIYDITDKFDKAILGFRKYTARMKWTKCR | not soluble
3 | MTLSTINPMKKSRIDNIHHTQILFFSDENQIDQEAPYYDALLDLEKDYPEQIDKMKVYDKKEGWEDEIETVPTLMVVDQRHVVVKIEGCVKKKEDIIKPLQHVLSKLEHHHHHH | not soluble
4 | PCRECGRPMMIRTASTGVFLGCSGYSLPPKERCKATVNLIPGDEIAADDEGESESRVLRGKHRCPICSTAMDAYLLDEKHKLHICGNNPDCPGYEIEEGQYRIKGYEGPSLECDKCGSEMQLKTGRFGKFFGCTNPTCKNTRKLLK | not soluble
5 | MKYVLDTSAIISRNINLLDGDLLFPSSVIGEIRKGKLKYMLDALFPMIRIVDPDQYYVRSVEDAAHKTGDLMNLSGTDIEVIAVAMQYGATIVTDDYSIQNVASALKIAFMNANIKSISKQISWVYRCTGCKKIFHEPVKVCDICGHNVKRHYDKKRSAVKKILEHHHHHH | not soluble
6 | MIFDHGKKLMKRVERYSGCSSGSLVAAMFIFNPEKLVFLVSFRKTKGRLPLFSLFLLNFRNLCILSISEAVEEIYKMADEVNDKTLGAMSPGFVISDRLRKVVEKFLPDDVAKANDLLFVSVTKLKTWKNELISNFESKIDLIDCLMASCYHPMYSSGLNGKAPILRGEAYIDGGYSNMIPEFLDMRTVTVSAFAGDADICPVEKSALFNDFMFAFFNQNMKLTLSNMKRVTNALFPPTRAILQEYFNAGARDAEKLLKDSGFYE | not soluble
7 | DRICTNCCAGTKGCKYFSDDGTFVCEGESDPRNPKACTLNCDPRIAYGVCPRSEEKKNDRICTNCCAGTKGCKYFSDDGTFVCEGESDPRNPKACPRNCDPRIAYGICPLA | soluble
8 | MGHHHHHHSHMGITTNLISEVSKFYYALKYHAKFMSLGELGCYASHYSLWEKCIELNEAICILEDDITLKEDFKEGLDFLEKHIQELGYIRLMHLLYDASVKSEPLSHKNHEIQERVGIIKAYSEGVGTQGYVITPKIAKVFLKCSRKWVVPVDTIMDATFIHGVKNLVLQPFVIADDEQISTIARKEEPYSPKIALMRELHFKYLKYWQFV | not soluble
9 | DRLTVVKQYVDNVLNKASDTYHGDKPSPLLADGVDPRTGQQLEWIFPDGRRAVLSNFSAQQNLMRVMSGLSQLSGDPRYQKRAEDIVRYHFQNYQDPSGLLYWGGHRFVDLKTLQPEGPSEKEMVHELKNAYPYYDLMFSVDSDATARFIRGFWNAHVYDWRILETSRHGEYGKPMGALWESKFEQQPPFFATKGLSFLNAGNDLIYSASLLYKHQQDQGALTWAKRLADQYVLPRDAKTGLGVYQFTQALKREEPTDDADTHSKFGDRAQRQFGPEFGPTALEGNMMLKGRTSTLYSENALMQLQLGKDLGPQGQDLLKWTVDGLKAFAKYAYNDQDNTFRPMIANGQDLSNYTLPRDGYYGKKGTVLKPYKAGNEFLISYARAYAIDNDPLLWKVARGIANDQGLGDIGTAPGKEVKVNMDTTNSDPYALFALLDLYHASQVADYRKLAEKIGDNIIKIRYIDGFFMASSDRQYADVDAIEPYALLALEASLRNKPQAVAPFLNGAGFTEGAYRMDDGSARVSTRDNELFLLNVGEKLQPN | soluble
10 | SNAMQRANREHLEIISLEEISMLVSSDFDLPEVLQHVTAKVATQLKVSVCNIYLREGDEVVLAATHGFDPAFIGKIRIKIGDGITGSVARDGQYISLSRASQDPRYRYFPELQEEKYNSMLSFPIGDKKEVYGVINLNTTSIRSFHEDEIYFVSIIANLILTAIKLRQQVASSRKAAEASA | soluble
11 | MLSSKFPLLVATDLSPTGKVVLEKAFKLAKRYHKPLFILHVSETTLFAPKIIELTQIEANLCKLLEPFYARYPEVKATLLCRQGGIEESIISAIKETQASLLLIGTSGEDNLLREFFLGSHCRKIIRSSTIPVLVVKNEEESDYSKIFIPTDFSPSSQKMANLTLHLFPHAYISLFHVILKPFEQRLGMYGLDKDEILRYHKDIDNQSASEADHFIEKLKLPSGKHRIKLLMETGVFSAKLCLQKVKEAQSDLIALNTTGNISFFSMDILNQSPKDVLIFKTDSE | not soluble
12 | MGSDKIHHHHHHMAVGTTKMAQMLDPEVLADMIDAEVGKAIRFAPLAEVDTTLEGQPGTTLTVPKWDYIGDAEDVAEGEAIPMTQLGFKKTTMTIKKAGKGVEITDEAILSGYGDPVGQAAKQIVEAIDHKVDADVLDALSKSTQTVEATATVDGVSKALDIFNDEDDAETVIVMNPADASTLRLDAAKEWLGATEVGANRVVSGVYGEVLGVQIVRSRKCPKGTAYMVRKGALRIMLKRNTMVETDRDITKAINQIVANKHYGVYLYKAEKAVKITLKDAAKK | not soluble
13 | MGSDKIHHHHHHMDTKQLKQDIIDYAYTIGIDSIGFTTADPFDELKQKLEAYHANGYASGFEESDIALRTEPKLSLPTARSIIAIAVGYPNKLKGAPKSVRGDRRGLFARASWGQDYHTIMRKRLDMLAAFIESKVPDVEIKSMVDTGVLSDRAVAERAGLGFVGRNGFVINPKLGTWTYLGEMLVSIPFEPDDPLLDSCGDCTICVDRCPTSALVGNGQLNSQKCISFLTQTKGYMPDQYRYKIGNRLYGCDTCQQVCPKNRGINTEQDDIILEPEILKPRLVPLLRMSNKEFKQTYGHLAGAWRGKKPIQRNAILALAHFNEVDAIPELKKVATTDERPMIRATAYWAIGQILGEEARDFINANYDQEDAEVQNEMIKGLDTRRE | not soluble
14 | MGVSLSKGGNVSLTKEAPGLTAVIVGLGWDVRTTTGTDFDLDASALLTNVEGKVANDQNFVFFNNLKSPDGSVEHTGDNITGEGEGDDEQIKVDLATVPADVDKIVFPVSIYDAENRQQSFGQVRNAFIRVVNQAGGAEIARYDLSEDASTETAMVFGELYRNGPEWKFRAIGQGYASGLRGIAQDFGVNV | not soluble
15 | MKEVLRVRTTKHTSIVNITQQVDQVVKKSGVREGICVVYTPHTTACVFVNEGADPDVVRDIVYSLEKLIPWNDPSYAHMEGNSAAHIRSAIIGNSRVIPIIDGELALGTWESIFLADFDGPRERKVIVVVLGEKLEHHHHHH | not soluble
16 | MLSKTVFDASQERMEVIFSEFDNIIVSFSGGKDSAVMLHLMIDYIRKNNIQKKIYVYHLDYEGQYSATSDFVAEMLTSNLDIIEPLWCCLPIAAQSAVSMYTDHWIPWEKSKQDIWVREMPDYPSVINEDNAPFDFDFHTIWDYEFNKKLIHWLHTKNKAEKTIALIGIRQQESLNRYNAIHKKERMYKNYNWTTEISKNIYNAYPIHDWLVEDIWTANAKFDWPYNKIYDLFYQAGLTLNDMRVASPFNDSATESLKLYRVIEPALWSKLVGRVNGANFTAIYGGTSAMAWKEINLPPNHTWKSYLEFLLTTLPSYTRERYLKKFKTSINYWTEKGGALKVETVEELKNLNVQADFLGKPQNKRTYSNPMEIVRFKEYPDDLKIKEFASVPTYKRMCIAILKNDYTCKYMGFGQTKLELEKRKHALEKYNNIL | not soluble
17 | ANNGAHRDMDLNTFIASAEAIAPYLHSFVSAGWESAGNPAAQLLSALRPIGIEAEQAMFAATQGVNTHKGMIFILGLICGSVGWLKANQLKIDAQHIGETIRQACQFLVIDELKAKRDCEPETAGERIYRQYGLTGARGEAASGLAMVMQHALPAYQACLTKGASTEQALWHTLLVLMANNNDSNLVSRGGLAGLHFVQEQAQQLLAKGGFLYQEIEQALTALDSVLIEKHLS | not soluble
18 | MAHHHHHHMALTLSPVEAALATCVALRYFYAHALHLSAATRVAHSVGPAPHDLSDRFTANLPFEDYLQWGLESIYSDASSAEAHLCLEQLSSNLRDAIMTHANNMEFRFLDEAPSLFDTVLLTSLYLVRSRVLRMPLLSSTSNKPDSNCSVFGPGLDALNHCSTSPAAVVVVSAARRSVVVRARRRINRGEEITLDYRLTGSGRGVSRGHPSHNGSLLRGDVICMNDDWAARYLMN | not soluble
19 | MHTDTTRENPQASAPQAADSSQDLAATAPGQLRVIKRNGTVVPYTDDKITVAITKAFLAVEGGTAAASSRIHDTVRRLTEQVTATFKRRMPSGGTIHIEEIQDQVELALMRAGEQKVARDYVIYREARAAERKNAGAASDVAQPHP | not soluble
20 | RKNSQSETFKVGVLQYVSHNALDEIYRGIKAGLKEEGYSGKKIKIDFMNAEGDQSKVQTMSQTLVNHKNDVLVGIATPAAQGLASATKKTPIIMGAVTDPVGAKLVKDLKKPNGNVTGVSDKTPISDQVSLIKKLTPDVKTVGILYSSSEDNSKSQVEEFKKIAEKKGYKVLEYSVPSTNEIATTMNVMLDKTDAVWIPLDNTIASAFPTVVSAAKTAKKPIYPSVDTMVTEGGLASVVVDQYKLGVATGKMAVKVFEGKKVSQLPVDIFDKGTPVVNKKVAKELGIDIPSDILKKAKQQKNQ | not soluble
21 | MGSDKIHHHHHHVQLSENVLLLGNRHFNYFLVGKKEAAIIECGVSGGVYSFQKQWEKLPQKPEVKYLVAMHAHFDHVCGIPALQKMFPAAVLLASSPAEAVLKKAKIMENFFAQDEKMLDLLADEGIIPRGLQSPNVTEIALDKLIAEGDEIKLGGDLNIKVLDAPGHSPCSLACYLPAEQVMFISDACGFQISDEDIFPVFFQAYDIYLETIKRLMSYPSKLLAIPHERIWTGRNIDAFYRRALSSAEQAFNIIRDLLDQGWEDEKIEKELFARYYKGSLKIYTPENIQQCVQILLRRVKEKL | not soluble
22 | MQLYYLGPKGTFSYLACRQYFSEKETTFQPKSNLFEVIKAVADDDTSIGVVPIENSIEGTINIVADALAQQDVFAHGEIRLDINFALYGNGTDSISDIKKVYSIAPAISQTTNYIHQHQFDYDYVDSTIQSLTKIENGVAAIAPLGSGEAYGFTPIDTHIEDYPHNVTRFLVIKNQQQFDQNATSLMFLITPMHDKPGLLASVLNTFALFNINLSWIESRPLKTQLGMYRFFVQADSAITTDIKKVIAILETLDFKVEMIGAFNLEHHHHHH | not soluble
23 | MHPALWVSKTGLDAQQTNIATISNNLANASTVGYKKSRAVFEDLFYQNINQPGGQSSQNTELPSGLMLGAGSKVVATQKVHTHGNAQTTTNALDMMVEGDGFFQVTLPDGNIGYTRNGQFTLNGEGTLVTSGSGYPVEPEIVI | not soluble
24 | MSITSPVSNTWAPTVKGPHGTQSKIDTKSLSPNLSRAELRKQVRLARRSLSTEVQAEASINACERMLKKLMAMNAQHVALYLTHDGELATAPLIAALWQRGIQTYLPRLHPFNAGQLLFLHYHADSPMQPNQYGILEPKLDVRSVMPIERLDVVVTPLVAFDIKGNRMGMGGGYYDRTLANWQDNGKPLPMGYAHDCQQVPSLPCEHWDVPLPAIITPSRVWEFLEHHHHHH | soluble
